Substitutions are numbered along the chain they refer to. Numbered stars: 1 amine (or outer) side, 2 acyl side, 3 side chain; on linkers, the order of the positions; unused ones are H or OH. Square brackets hold non-standard residues; d marks the D form. Side chains are listed from the residue outwards. Ends that are not written are not given here. * marks the point of attachment. Dodecanoyl(12-OPh(4-COOH)) = O=C(O)c1ccc(OCCCCCCCCCCCC(=O)*)cc1; Undecanoyl(11-OPh(4-COOH)) = O=C(O)c1ccc(OCCCCCCCCCCC(=O)*)cc1; γGlu = O=C(O)[C@H](CCC(=O)[*:2])N[*:1]; εLys = N[C@@H](CCCCN[*:1])C(=O)[*:2]; AEEA = NCCOCCOCC(=O)O; Aib = CC(C)(N)C(=O)O
B1: N^ε26-[(2S)-2-amino-6-[[(4S)-4-carboxy-4-[[(4S)-4-carboxy-4-[11-(4-carboxyphenoxy)undecanoylamino]butanoyl]amino]butanoyl]amino]hexanoyl], … (peptide)
peptide: H[Aib]EGTFTSDVSSYLEEQAAK([εLys-γGlu-γGlu-Undecanoyl(11-OPh(4-COOH))])EFIEWLVRGRK([εLys-γGlu-γGlu-Undecanoyl(11-OPh(4-COOH))])E
notes: X stands for Aib
B2: N^ε26-[(2S)-2-amino-6-[[2-[2-[2-[[2-[2-[2-[[(4S)-4-carboxy-4-[11-(4-carboxyphenoxy)undecanoylamino]butanoyl]amino]ethoxy]ethoxy]acetyl]amino]ethoxy]ethoxy]acety … (peptide)
peptide: H[Aib]EGTFTSDVSSYLEEQAAK([εLys-AEEA-AEEA-γGlu-Undecanoyl(11-OPh(4-COOH))])EFIAWLVRGRK([εLys-AEEA-AEEA-γGlu-Undecanoyl(11-OPh(4-COOH))])
B3: N^ε26-[(2S)-2-amino-6-[[2-[2-[2-[[2-[2-[2-[[(4S)-4-carboxy-4-[12-(4-carboxyphenoxy)dodecanoylamino]butanoyl]amino]ethoxy]ethoxy]acetyl]amino]ethoxy]ethoxy]acety … (peptide)
peptide: H[Aib]EGTFTSDVSSYLEEQAAK([εLys-AEEA-AEEA-γGlu-Dodecanoyl(12-OPh(4-COOH))])EFIAWLVRGRK([εLys-AEEA-AEEA-γGlu-Dodecanoyl(12-OPh(4-COOH))])
B4: N^ε26-[(2S)-2-amino-6-[[(2S)-2-amino-6-[[(4S)-4-carboxy-4-(13-carboxytridecanoylamino)butanoyl]amino]hexanoyl]amino]hexanoyl], … (peptide)
peptide: HXEGTFTSDVSSYLEGQAAKEFIAWLVHGRK
modifications: Aib at 8; Lys 26 and Lys 37 each acylated at the epsilon-amino group with the side chain given in the name (numbering of GLP-1(7-37), His = 7)
B5: N^ε26-[(2S)-2-amino-6-[[(4S)-4-carboxy-4-[[(4S)-4-carboxy-4-[11-(4-carboxyphenoxy)undecanoylamino]butanoyl]amino]butanoyl]amino]hexanoyl], … (peptide)
peptide: H[Aib]EGTFTSDVSSYLEEQAAK([εLys-γGlu-γGlu-Undecanoyl(11-OPh(4-COOH))])EFIEWLVRGRK([εLys-γGlu-γGlu-Undecanoyl(11-OPh(4-COOH))])
B6: N^ε26-[(2S)-2-amino-6-[[(2S)-2-amino-6-[[(4S)-4-carboxy-4-[12-(4-carboxyphenoxy)dodecanoylamino]butanoyl]amino]hexanoyl]amino]hexanoyl], … (peptide)
peptide: B4 peptide with H28Q
modifications: Aib at 8; Lys 26 and Lys 37 each acylated at the epsilon-amino group with the side chain given in the name (numbering of GLP-1(7-37), His = 7)
B7: Comparative compound (WO2011/080103) Example 4 (peptide)
peptide: B4 peptide with H28R
modifications: Aib at 8; 26K and 37K acylated: protracting moiety C14 diacid, linker gGlu-2xOEG (numbering of GLP-1(7-37), His = 7)
notes: X stands for Aib
B8: N^ε26-[(2S)-2-amino-6-[[(2S)-2-amino-6-[[(4S)-4-carboxy-4-[10-(4-carboxyphenoxy)decanoylamino]butanoyl]amino]hexanoyl]amino]hexanoyl], … (peptide)
peptide: B4 peptide with W25H, H28Q
modifications: Aib at 8; Lys 26 and Lys 37 each acylated at the epsilon-amino group with the side chain given in the name (numbering of GLP-1(7-37), His = 7)
B9: N^ε26-[(2S)-6-[[(2S)-6-[[(4S)-4-carboxy-4-[11-(4-carboxyphenoxy)undecanoylamino]butanoyl]amino]-2-(dimethylamino)hexanoyl]amino]-2-(dimethylamino)hexanoyl], … (peptide)
peptide: B4 peptide with H1X, H28R
modifications: not fully specified; Imp (imidazopropionyl, des-amino histidine) at 7; Aib at 8; Lys 26 and Lys 37 each acylated at the epsilon-amino group with the side chain given in the name (numbering of GLP-1(7-37))
B10: N^ε26-[(2S)-2-amino-6-[[(2S)-2-[[2-[[(2S)-2-[[(4S)-4-carboxy-4-[12-(4-carboxyphenoxy)dodecanoylamino]butanoyl]amino]-3-hydroxypropanoyl]amino]acetyl]amino]-3-hy … (peptide)
peptide: B4 peptide with H1X, H28R
modifications: Imp (imidazopropionyl, des-amino histidine) at 7; Aib at 8; Lys 26 and Lys 37 each acylated at the epsilon-amino group with the side chain given in the name (numbering of GLP-1(7-37))
B11: N^ε26-[(2S)-2-amino-6-[[(2S)-2-amino-6-[[(4S)-4-carboxy-4-[11-(4-carboxyphenoxy)undecanoylamino]butanoyl]amino]hexanoyl]amino]hexanoyl], … (peptide)
peptide: B4 peptide with W25H, H28Q
modifications: Aib at 8; Lys 26 and Lys 37 each acylated at the epsilon-amino group with the side chain given in the name (numbering of GLP-1(7-37), His = 7)

The binders below were run against T1, human GLP-1 receptor (human, UniProt P43220 24-463) (assay: SPA displacement of [125I]-GLP-1(7-36)NH2 from BHK membranes with human GLP-1 receptor, high HSA (2.0%)).
T1 construct: whole, on cells; also called hGLP-1
Method: (§1) 50 ul (micro liter) HSA ("high albumin" experiment containing 2% HSA), or buffer ("low albumin" experiment containing 0.001% HSA) was added to Optiplate, and 25 ul of test compounds were added. 5-10 ug membrane protein/sample was added (50 ul) corresponding to 0.1-0.2 mg protein/ml (to be preferably optimised for each membrane preparation). SPA-particles (Wheatgerm agglutinin SPA beads, Perkin Elmer, #RPNQ0001) were added in an amount of 0.5 mg/well (50 ul). […] The plates were sealed with PlateSealer and incubated for 120 minutes at 30° C. while shaking. The plates were centrifuged (1500 rpm, 10 min) and counted in Topcounter.

**Q.** For B1, which IC50 is on record?
**A.** 123 nM

**Q.** B2 was tested. Which IC50 did it give?
**A.** 251 nM

**Q.** B3 was tested. Which IC50 did it give?
**A.** 484 nM

**Q.** Which IC50 does the source give for B4 here?
**A.** 71 nM

**Q.** For B5, which IC50 is on record?
**A.** 641 nM

**Q.** B6 was tested. Which IC50 did it give?
**A.** 321 nM

Each binder was assayed against T1, human GLP-1 receptor (assay: cell-based or functional assay).

**Q.** B3 was tested. Which “EC50/pM, In vitro potency (AlphaScreen)” value did it give?
**A.** 369 pM

**Q.** With B4 as the binder, how does the “EC50/pM, In vitro potency (AlphaScreen)” value read?
**A.** 48 pM

**Q.** With B6 as the binder, how does the “EC50/pM, In vitro potency (AlphaScreen)” value read?
**A.** 116 pM

Target: T1, human GLP-1 receptor
Assay: SPA displacement of [125I]-GLP-1(7-36)NH2 from BHK membranes with human GLP-1 receptor, high HSA (2.0%)
Remark: another data set of the same source

**Q.** How did the IC50 turn out when B7 was run?
**A.** 357 nM

**Q.** For B8, which IC50 is on record?
**A.** 27 nM

Each binder was assayed against T1, human GLP-1 receptor (assay: SPA displacement of [125I]-GLP-1(7-36)NH2 from BHK membranes with human GLP-1 receptor, low HSA (0.001%)).
Method: as §1

**Q.** For B1, which IC50 is on record?
**A.** 0.02 nM

**Q.** For B7, which IC50 is on record?
**A.** 6.02 nM

**Q.** Which IC50 does the source give for B2 here?
**A.** 0.26 nM

**Q.** How did the IC50 turn out when B4 was run?
**A.** 0.93 nM

**Q.** With B8 as the binder, how does the IC50 read?
**A.** 1.57 nM

**Q.** B5 was tested. Which IC50 did it give?
**A.** 0.03 nM

**Q.** B6 was tested. Which IC50 did it give?
**A.** 0.64 nM

Target: T1, human GLP-1 receptor
Assay: cell-based or functional assay
Remark: another data set of the same source

**Q.** B7 was tested. Which “In vitro potency (Example 44) EC50/pM” value did it give?
**A.** 366 pM

**Q.** And the “In vitro potency (Example 45) (0% HSA) EC50/pM” value?
**A.** 46 pM

**Q.** And the “In vitro potency (Example 45) (1% HSA) EC50/pM” value?
**A.** 92 pM

**Q.** B8 was tested. Which “In vitro potency (Example 45) (0% HSA) EC50/pM” value did it give?
**A.** 11 pM

**Q.** What about the “In vitro potency (Example 45) (1% HSA) EC50/pM” value of the same binder?
**A.** 162 pM

Target: T1, human GLP-1 receptor
Assay: cell-based or functional assay
Remark: another data set of the same source

**Q.** For B9, which “EC50/pM (0% HSA), In vitro potency (CRE luciferase)” value (shortened to “EC50/pM (0% HSA), In vitro potency”) is on record?
**A.** 7.9 pM

**Q.** Which “EC50/pM (0% HSA), In vitro potency” value does the source give for B10 here?
**A.** 9.4 pM

**Q.** Which “EC50/pM (0% HSA), In vitro potency” value does the source give for B2 here?
**A.** 5.5 pM

**Q.** And the “EC50/pM (1% HSA), In vitro potency (CRE luciferase)” value (“EC50/pM (1% HSA), In vitro potency” below)?
**A.** 70 pM

**Q.** With B3 as the binder, how does the “EC50/pM (0% HSA), In vitro potency” value read?
**A.** 3.6 pM

**Q.** And the “EC50/pM (1% HSA), In vitro potency” value?
**A.** 141 pM

**Q.** B4 was tested. Which “EC50/pM (0% HSA), In vitro potency” value did it give?
**A.** 7.8 pM

**Q.** And the “EC50/pM (1% HSA), In vitro potency” value?
**A.** 80 pM

**Q.** Which “EC50/pM (0% HSA), In vitro potency” value does the source give for B8 here?
**A.** 11 pM

**Q.** How did the “EC50/pM (0% HSA), In vitro potency” value turn out when B5 was run?
**A.** 1.5 pM

**Q.** And the “EC50/pM (1% HSA), In vitro potency” value?
**A.** 391 pM

**Q.** For B11, which “EC50/pM (0% HSA), In vitro potency” value is on record?
**A.** 7.2 pM

**Q.** Which results are given for B6?
**A.** EC50/pM (0% HSA), In vitro potency (CRE luciferase): 8.7 pM; EC50/pM (1% HSA), In vitro potency (CRE luciferase): 633 pM

The binders below were run against human serum albumin (HSA) (human, UniProt P02768 25-609) (assay: cell-based or functional assay).
Chain of human serum albumin (HSA) (P02768 25-609 limits assumed): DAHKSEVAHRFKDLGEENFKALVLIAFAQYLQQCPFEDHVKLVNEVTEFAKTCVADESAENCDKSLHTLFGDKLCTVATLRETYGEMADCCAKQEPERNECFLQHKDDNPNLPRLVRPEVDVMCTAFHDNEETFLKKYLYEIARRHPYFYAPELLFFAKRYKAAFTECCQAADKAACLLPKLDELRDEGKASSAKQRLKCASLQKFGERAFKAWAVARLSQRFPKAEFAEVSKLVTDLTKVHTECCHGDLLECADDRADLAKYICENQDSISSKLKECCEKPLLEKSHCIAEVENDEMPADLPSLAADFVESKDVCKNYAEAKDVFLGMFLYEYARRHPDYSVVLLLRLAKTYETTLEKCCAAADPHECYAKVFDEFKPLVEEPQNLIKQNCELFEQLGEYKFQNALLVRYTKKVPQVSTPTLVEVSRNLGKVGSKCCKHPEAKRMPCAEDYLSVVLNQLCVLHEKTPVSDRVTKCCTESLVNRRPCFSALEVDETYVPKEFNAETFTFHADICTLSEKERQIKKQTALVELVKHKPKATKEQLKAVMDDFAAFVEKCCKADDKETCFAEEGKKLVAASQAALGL

**Q.** How did the “EC50 (ratio 1% HSA/0% HSA), CRE luciferase” value (from here on “EC50 (ratio 1% HSA/0% HSA)”) turn out when B4 was run?
**A.** 10.3 ratio

**Q.** With B5 as the binder, how does the “EC50 (ratio 1% HSA/0% HSA)” value read?
**A.** 260 ratio

**Q.** For B6, which “EC50 (ratio 1% HSA/0% HSA)” value is on record?
**A.** 72 ratio

Source: patent US10000542 (Novo Nordisk, dated 2018)
